The assay addresses Myc-GRAF3 (human) (UniProt A6NI28).
Sequence of UniProt A6NI28 (A6NI28 whole entry): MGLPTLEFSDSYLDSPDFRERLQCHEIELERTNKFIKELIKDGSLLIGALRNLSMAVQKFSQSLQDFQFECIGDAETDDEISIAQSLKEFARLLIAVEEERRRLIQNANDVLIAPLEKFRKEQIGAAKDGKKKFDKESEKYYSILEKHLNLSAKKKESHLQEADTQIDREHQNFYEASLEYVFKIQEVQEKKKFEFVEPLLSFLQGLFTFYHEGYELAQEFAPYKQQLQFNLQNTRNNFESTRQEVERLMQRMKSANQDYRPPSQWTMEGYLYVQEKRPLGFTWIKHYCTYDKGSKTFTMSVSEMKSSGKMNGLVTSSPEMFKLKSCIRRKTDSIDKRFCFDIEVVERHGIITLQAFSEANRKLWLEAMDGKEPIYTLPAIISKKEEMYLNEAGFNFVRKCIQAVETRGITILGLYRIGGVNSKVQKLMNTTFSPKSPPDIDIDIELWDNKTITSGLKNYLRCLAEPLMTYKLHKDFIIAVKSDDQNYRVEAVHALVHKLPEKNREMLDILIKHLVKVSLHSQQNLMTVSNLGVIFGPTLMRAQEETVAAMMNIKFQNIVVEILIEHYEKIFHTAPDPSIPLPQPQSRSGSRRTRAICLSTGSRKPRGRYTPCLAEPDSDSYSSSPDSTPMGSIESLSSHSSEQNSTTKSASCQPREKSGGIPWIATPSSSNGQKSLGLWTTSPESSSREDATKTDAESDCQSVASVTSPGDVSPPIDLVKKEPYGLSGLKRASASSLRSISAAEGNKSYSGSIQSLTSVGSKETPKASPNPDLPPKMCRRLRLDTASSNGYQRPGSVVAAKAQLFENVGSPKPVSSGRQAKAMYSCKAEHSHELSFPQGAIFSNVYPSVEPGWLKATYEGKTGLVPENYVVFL

As for Flag-GRAF3 Bar-PH (domain or fragment), the RhoA-dependent actin stress fibers (phalloidin staining) in RaAoSMC; cells with reduced stress fibers: 58/59 with Myc-GRAF3 alone, 5/72 with Myc-GRAF3 and Flag-BAR-PH is 5 of 72 cells.

These data come from publication PMC7226614.
